Data set [1] deals with E. coli RNA polymerase core;gp55 H154X (C-terminal region truncated) (Escherichia coli;bacteriophage T4, UniProt P0A7Z4;P0A8V2;P0A8T7;P0A800;P04524 1-329;1-1342;1-1407;1-91;1-153, |). Description: EMSA; heparin 0.1 mg/ml challenge; forms RPo as effectively as full-length gp55; EMSA: 0.4 uM gp55, 0.2 uM RNAP, 0.2 uM DNA in 10 mM HEPES pH 7.5, 50 mM KCl, 5% glycerol, 0.1 mg/ml heparin; DNA 20 min at 37 C, heparin 1 min at 22 C; 5% PAGE. The settings on record: protein: recombinant;recombinant; tags: beta' C-terminal His tag (stated for pull-down);none stated; chain copies: 2;1;1;1;1; label: none (gel stained); blunt. A general note: In EMSA bound probe runs differently from free probe, usually more slowly.

Data set [2] addresses T1, E. coli RNA polymerase β′ subunit (E. coli, UniProt P0A8T7 1-1407).
T1 construct: RNA polymerase β′ subunit, E. coli; Stood in the structures as a subunit of RNAP core; also called RNAP β′ subunit; source: E. coli BL21(DE3) with plasmid pIA900, purified as part of RNAP core enzyme
Description: cryo-EM structure; 0.8 uM E. coli RNAP incubated with 0.8 uM gp55, 0.8 uM gp33 and 0.8 uM gp45 homotrimer 10 min on ice, then with nucleic acid scaffold, gp44/gp62 complex, gp32 and dATP 20 min at 30 °C in transcription buffer; 3D classification gave RPo-gp55 (3.6 Å) and TAC-gp45 (4.5 Å); promoter DNA present. The settings on record: both partners purified.

Data set [3] has as its target T2, E. coli RNA polymerase β subunit (E. coli, UniProt P0A8V2 1-1342).
T2 construct: RNA polymerase β subunit, E. coli; holds the β flap with the flap tip helix (FTH); Stood in the structures as a subunit of RNAP core; also called RNAP β subunit; source: E. coli BL21(DE3) with plasmid pIA900, purified as part of RNAP core enzyme
The data set is described as above. The settings on record: both partners purified.

B1: T4 late promoter EMSA scaffold (dsDNA)
DNA 1: CTAATAAAGAGCTCAGCACTATTACTGAGAGTATAAATACTCCTGATACTGAAGCAGCCGGACT
DNA 2: AGTCCGGCTGCTTCAGTATCAGGAGTATTTATACTCTCAGTAATAGTGCTGAGCTCTTTATTAG
B1: in data set [1], the binding result was “binds”.

B2: bacteriophage T4 gp55 (promoter specificity factor) (natural protein, UniProt P04524 1-185, looked up)
chain: MSETKPKYNYVNNKELLQAIIDWKTELANNKDPNKVVRQNDTIGLAIMLIAEGLSKRFNFSGYTQSWKQEMIADGIEASIKGLHNFDETKYKNPHAYITQACFNAFVQRIKKERKEVAKKYSYFVHNVYDSRDDDMVALVDETFIQDIYDKMTHYEESTYRTPGAEKKSVVDDSPSLDFLYEAND
notes: also called full-length gp55; wild-type protein
With B2, the binding result in data set [2] was “binds”.

B3: bacteriophage T4 gp33 (coactivator) (natural protein)
chain: MTQFSLNDIRPVDETGLSEKELSIKKEKDEIAKLLDRQENGFIIEKMVEEFGMSYLEATTAFLEENSIPETQFAKFIPSGIIEKIQSEAIDENLLRPSVVRCEKTNTLDFLL
notes: source: E. coli BL21(DE3), pET28a-NH-gp33, purified (Ni-NTA, Mono Q, Superdex 200)
In the case of B3, the binding result in data set [2] and in data set [3] was “binds” each time.

(Values after article PMC7892883, “Transcription activation by a sliding clamp” (Nature Communications, 2021).)
